In PMC12377726 (Proceedings of the National Academy of Sciences of the …, 2025):

B1: G001_gp1_V07_VRC01c_99 (antibody, V domains shown)
VH: QVQLVQSGAEVKKPGASVKVSCKASGYTFTDYYMHWVRQAPGQGLEWMGWINPNSGGTNYAQKFQGRVTMTRDTSISTAYMDLSRLRSDDTAMYYCATSPHEYSTSWEFDSWGQGTLVTVSS
VL: DIVLTQSPGTLSLSPGERATLSCRASQSVSSSNLAWYQQKPGQAPRLLIYGAFKRATGIPDRFSGSGSGTDFTLTISRLEPEDFAVYYCQQYETFGQGTKVEIK
B2: G001_LD_V07A_VRC01c_40 (antibody, V domains shown)
VH: not shown
VL: DIQMTQSPSSLSASVGDRVTITCQASQDISNYLNWYQQKPGKAPKLLIYDASNLETGVPSRFSGSASGTESSFTISSLQPEDIATYYCQQYETFGPGTKVDIK
B3: G001_LD_V07A_VRC01c_41 (antibody, V domains shown)
VH: QVQLVQSGAEVKKPGASVRVSCRASGYTFSDYYIHWVRQAPGQGLEWMGWINPTSGGTNYAQRFQGRVTMTRDTSISTAYMELSRLRSDDTAVYYCARNLGNSGWYFAWGQGTLVTVSS
VL: DIQMTQSPSTLSASVGDRVTITCRASQSISSWLAWYQQKPGKAPKLLIYKASSLESGVPSRFSGSGSGTEFTLTISNLQPDDFGTYYCQQYETFGQGTKVEIK
B4: G001_LD_V07A_VRC01c_46 (antibody, V domains shown)
VH: QVQLVQSGAEVKKPGASVKVSCKASGYTFTDYYMHWVRQAPGQGLEWMGWINPNSGGTNYAQKFQGWVTMTRDTSISTAYMELTRLRSDDTAVYYCAVRKNGGDCSFCFGYWGQGTLVTVSS
VL: QSVLTQPPSVSGAPGQRVTISCTGSSSNIGAGYDVHWYQQLPGTAPKLLIYGNNNRPSGVPDRFSGSKSGTSASLAITGLQAEDEADYYCQSYEMFGGGTKLTVL
B5: G001_LD_V07A_VRC01c_65 (antibody, V domains shown)
VH: QVQLVQSGAEVKKPGASVKVSCKASGYTFTGYYMHWVRQAPGQGLEWMGWINPNSGGTNYAQKFQGYVTMTRDTSISTAFMELSRLRSDDAAVYYCATSIAAPDSYWYFDLWGRGTLVTVSS
VL: EIVLTQSPGTLSLSPGERATLSCRASQSVTSSYLAWYQQKPGQAPRLLIYGASSRATGIPDRFSGSGSGTDFTLTISRLEPEDFAVYYCQQYEFFGQGTKLEIK
B6: G001_gp1_V08_VRC01c_114 (antibody, V domains shown)
VH: QVQLVQSGAEVKKPGASGKVSCKASGYTFTDYYMYWVRQAPGQGLEWIGWINPTSGGSNYAQKFQGRVTMTRDTSISTAYMELSRLRSDDTAVYYCARRSEDRKAFDIWGQGTMVTVSS
VL: DIQMTQSPSTLSASVGDRVTITCRASQSISSWLAWYQQKPGKAPKLLIYKASSLESGVPSKFSGSGSGTEFTLTISSLQPDDFATYYCQQYDTFGQGTKLEIK
B7: G001_gp1_V08_VRC01c_115 (antibody, V domains shown)
VH: QVQLVQSGAEVKKPGASVKVFCKTSGYIFTDYYMHWVRQAPGQGLEWMGWINPNSGGTNYAQKFQGRVTMTRDTSISTAYMELSRLRSDDTAVYYCARAYYGDYGDYWGQGTLVTVSS
VL: DIVMTQSPDSLAVSLGERATINCKSSQSVLYSSDNKNYLSWYQQKPRQPPKLLIYWASTRESGVPDRFTGSGSGTDFTLTISSLQAEDVAVYYCQQYWTFGQGTKVEIK
B8: G001_gp1_V08_VRC01c_116 (antibody, V domains shown)
VH: QVQLVQSGAEVKKPGASGKVSCKASGYTFTDYYMYWVRQAPGQGLEWMGWINPNSGGSNYAQKFQGRVTMTRDTSISTAYMELSRLRSDDTAVYYCARRSEDRKAFDIWGQGTMVTVSS
VL: DIQMTQSPSTLSASVGDRVTITCRASQSISSWLAWYQQKPGKAPKLLIYKASSLESGVPSKFSGSGSGTEFTLTISSLQPDDFATYYCQQYDTFGQGTKLQIK
B9: G001_gp1_V08_VRC01c_117 (antibody, V domains shown)
VH: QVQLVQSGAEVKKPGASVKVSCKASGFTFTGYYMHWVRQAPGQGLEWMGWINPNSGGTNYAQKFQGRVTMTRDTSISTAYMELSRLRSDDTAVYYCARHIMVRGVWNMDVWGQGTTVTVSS
VL: DIQMTQSPSSLSASVGDRVTITCQASQDISNYLNWYQQKPGKAPKLLIYDASNLEKGVPSRFSGGGSGTDFTFTISSLQPEDIATYYCQQYEFFGPGTKVDIK
B10: G001_gp1_V08_VRC01c_119 (antibody, V domains shown)
VH: QVQLVQSGADVKKPGASVKVSCKASGYTFSGYYMHWVRQAPGQGLEWMGWINPNSGGTNYAQNFQGRVTMTRDTSISTAYMELSSLTSDDTAVYYCASPRYSNGNRCYRYWGQGTLVTVSS
VL: DIQMTQSPSSLSASVGDRVTITCQASQDISNYLNWYQHHPGRAPKLLIYDASNLETGVPSRFSGSGSGTDFTFTISSLQPEDVATYYCQQYDYFGPGTKVDIK
B11: G001_gp1_V08_VRC01c_120 (antibody, V domains shown)
VH: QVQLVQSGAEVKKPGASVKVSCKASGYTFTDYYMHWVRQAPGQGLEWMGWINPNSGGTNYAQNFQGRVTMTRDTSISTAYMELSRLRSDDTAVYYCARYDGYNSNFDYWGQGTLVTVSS
VL: DIQMTQSPSTLSASVGDRVTITCRASQSISNWLAWFQQKPGKAPKLLIYKASNLESGVPSRFSGSGSGTEFTLTISSLQPDDFATYYCQKYNTFGQGTKLEIK
B12: G001_gp1_V08_VRC01c_121 (antibody, V domains shown)
VH: QVQLVQSGAEVRKPGASVKVSCKASGYTFTDYYMHWVRQAPGQGLECMGWINPDSGGTNYAQKFQGRVTMTRDTSISTVYMELSRLRSDDTAVYYCARPALYDSSGYNWAYWGQGSLVTVSS
VL: DIQMTQSPSTLSASVGDRVTITCRASQSINRWLAWYQQKPGKAPKLLIYKTSSLENGVPSRFNGSGSGTEFTLTISSLQPDDFATYYCQHYETFGQGTKVEIK
B13: G001_gp1_V08_VRC01c_122 (antibody, V domains shown)
VH: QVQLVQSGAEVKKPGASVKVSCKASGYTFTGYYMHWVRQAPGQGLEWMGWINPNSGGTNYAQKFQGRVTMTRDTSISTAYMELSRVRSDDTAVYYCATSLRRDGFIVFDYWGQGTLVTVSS
VL: DIQMTQSPSTLSASVGDRVTITCRASQSISSWLAWYQQKPGKAPKLLIYKASSLESGVPSRFSGSGSGTEFTLTISSLQPDDFATYYCQQYETFGQGTKVEIK
B14: G001_gp1_V08_VRC01c_123 (antibody, V domains shown)
VH: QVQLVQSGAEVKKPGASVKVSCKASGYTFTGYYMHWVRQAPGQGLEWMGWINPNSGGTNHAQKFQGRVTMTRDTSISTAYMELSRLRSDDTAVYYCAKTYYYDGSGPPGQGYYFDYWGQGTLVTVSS
VL: EIVMTQSPATLSVSPGERATLSCRANQSVSSNLAWYQQKPGQAPRLLIYGASTRATGIPARFSGSGSGTEFTLTISSLQSEDFAVYYCQQYNSFGQGTKLEIK
B15: G001_gp1_V08_VRC01c_126 (antibody, V domains shown)
VH: QVQLVQSGAEVKKPGASVKVSCKASGYTFTGYYMHWVRQAPGQGLEWMGWINPNSGGTNYAQKFQDWVTMTRDTSISTAYMELNRLRSDDAAIYYCARADIVATIWALDYWGQGTLVTVSS
VL: DIQMTQSPSSLSASVGDRVTITCQASQDISTYLNWYQQKPGKAPKLLIYDASNLETGVPSRFSGSGSGTDFTFTISSLQPEDSATYYCQQYGTFGQGTKVEIK
B16: G001_gp1_V08_VRC01c_128 (antibody, V domains shown)
VH: QVQLVQSGAEVKKPGASVKVSCKASGYTFIDYYMHWVRQAPGQGLEWMGWINPNSGGTNYAQQFQGWVTMTRDTSISTAYMELSRLRSDDTAVYYCATSIVAAGSYWYFDLWGRGTLVTVSS
VL: EIVLTQSPGTLSLSPGERATLSCRASQSVTSSYLAWYQKKPGQAPRLLIYGASSRATGIPDRFSGSGSGTDFTLTISRLEPEDFAVYYCQQYEFFGQGTKLEIK
B17: G001_gp1_V08_VRC01c_130 (antibody, V domains shown)
VH: QVQLVQSGAEVKKPGASVKVSCKASGYTFTGYYMHWVRQAPGQGLEWLGWINPNSGGTNYAQKFQGWVTMTRDTSISTAYMELSRLRSDDTAVYYCATVAGYSSSWQRGWAFDIWGQGTMVTVSS
VL: EIVLTQSPGTLSLSPGEGATLSCRASQSVSSSSLAWYQQKPGQAPRLLIYGASSRATGIPDRFSGSGSGTDFTLTISRLEPEDFAVYYCQLYETFGQGTKVEIK
B18: G001_gp1_V08_VRC01c_131 (antibody, V domains shown)
VH: QVQLVQSGAEVKKPGASVKVSCKASGYTFTDYYIYWLRQAPGHGLEWMGWINPNSGGTNYAQKFQDWVTMTRDTSISTAYMELSRLSSDDTAVYYCARRNDYLGGSYRYSAFDIWGQGTMVTVSS
VL: EIVLTQSPGTLSLSPGERATLSCRASQKVSSRYLAWYQQKPGQAPRLLIYGASSRATGIPDRFSGSGSGTDFTLTISRLEPEDFAVYYCQQYETFGQGTKLEIK
B19: G001_gp1_V08_VRC01c_132 (antibody, V domains shown)
VH: QVQLVQSGAEVKKPGASVKVSCKASGYTFSGYYMHWVRQAPGQGLEWMGWINPNSGGTNYAQKFQGWVTMTRDTSISTAYMELSRLKSDDTAVYYCARVEHTSGWCFDSWGQGTLVTVSS
VL: DIQMTQSPSSLSASVGDRVTITCQASQDISNYLNWYQQKPGKAPKLLISDASNLETGVPSRFSGSGSGTDFTFTISSLQPEDIATYYCQQYDIFGPGTKVEIK
B20: G001_gp1_V08_VRC01c_133 (antibody, V domains shown)
VH: QVQLVQSGAEVKKPGASVKVSCKASGYTFTDYYLHWVRQAPGQGLEWMGWINPNSGGTNYARKFQDWVTMTRDTSISTAYMELSRLRSDDTAVYYCARGKTTVSWYFEYWAQGTLVTVSS
VL: EIVLTQSPGTLSLSPGERATLSCRASQSVSSSYLAWYQQKPGQAPRLLIYGASSRATGIPDRFSGSGSGTDFTLTISRLEPEDSAVYYCQQYETFGQGTKVEIK
B21: G001_gp1_V08_VRC01c_134 (antibody, V domains shown)
VH: QVQLVQSGAEVKKPGASVKVSCKASGYTFTDYYMHWVRQAPGQGLEWMGWINPNSGGTNYAQKFQGWVTMTRDTSISTAYMELSRLTSDDTAVYYCATSIKATNYNWNFDLWGRGTLVTVSS
VL: EIVLTQSPGTLSLSPGERATLSCRASQSVTSNLAWYQQKPGQAPRLLIYGASSRATGIPDRFSGSGSGTDFTLTISRLEPEDFAVYYCQQYESFGQGTKLEIK
B22: G001_gp1_V08_VRC01c_135 (antibody, V domains shown)
VH: QVQLVQSGAEVKKPGASVKVSCKASGYIFTGYYMHWVRQAPGQGLEWMGWINPNSGGTNYAQKFQGWVTMTRDTSISTAYMELSRLRSDDTAVYYCASSVGVPAARGWAFDMWGQGTMVTVSS
VL: DIQMTQSPSSLSASVGDRVTITCQASQDISNYLNWYQQKPGKAPKLLIYDASDLETGVPSRFSGSGSGTDFTFTISSLQPEDIATYYCQQYDLFGPGTKVDIK
B23: G001_gp1_V08_VRC01c_136 (antibody, V domains shown)
VH: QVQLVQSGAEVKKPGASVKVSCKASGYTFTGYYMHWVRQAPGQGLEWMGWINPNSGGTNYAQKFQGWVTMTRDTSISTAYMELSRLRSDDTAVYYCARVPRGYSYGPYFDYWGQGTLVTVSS
VL: EIVMTQSPATLSVSPGERATLSCRASQSVSSNLAWYQQKPGQAPRLLIYGASTRATGIPARFSGSGSGTEFTLTISSLQSEDFAVYYCQQYSTFGGGTKVEIK
B24: G001_gp1_V08_VRC01c_138 (antibody, V domains shown)
VH: QVQLVQSGAEVKKPGASVKVSCKASGYTFTDYYMYWVRQAPGQGLEWMGWINPNSGGTNYAQKFQGRVTMTRDTSISTAYMELSGLRSDDTAVYYCARRPNPYSGYDSNAFDIWGQGTMVTVSS
VL: DIQMTQSPSTLSASVGDRVTITCRASQSISSWLAWYQQKPGKAPKLLIYKASSLESGVPSRFSGSGSGTEFTLTISSLQPDDSATYYCQQYETFGQGTKVEIK

Each binder was assayed against eOD-GT8 (engineered outer domain germline-targeting version 8), monomer (HIV-1 gp120 engineered outer domain, …).
B1: binds.
B2: binds.
B3: binds.
B4: binds.
B5: binds.
B6: binds.
B7: binds.
B8: binds.
B9: binds.
B10: binds.
B11: binds.
B12: binds.
B13: binds.
B14: binds.
B15: binds.
B16: binds.
B17: binds.
B18: binds.
B19: binds.
B20: binds.
B21: binds.
B22: binds.
B23: binds.
B24: binds.
